T1: mouse FcγRI (Mus musculus, UniProt P26151)
T1 construct: purchased R&D Systems, Inc
T1 sequence (P26151 25-404): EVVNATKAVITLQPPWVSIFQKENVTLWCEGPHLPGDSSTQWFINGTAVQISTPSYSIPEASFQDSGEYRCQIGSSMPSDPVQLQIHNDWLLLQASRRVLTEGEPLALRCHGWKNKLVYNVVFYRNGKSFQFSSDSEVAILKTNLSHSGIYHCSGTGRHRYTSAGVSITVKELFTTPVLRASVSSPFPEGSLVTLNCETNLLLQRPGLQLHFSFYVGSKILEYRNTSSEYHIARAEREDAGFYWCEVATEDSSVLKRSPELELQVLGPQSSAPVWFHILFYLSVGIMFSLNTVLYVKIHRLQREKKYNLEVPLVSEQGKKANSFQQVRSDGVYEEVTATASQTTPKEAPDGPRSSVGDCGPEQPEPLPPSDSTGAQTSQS

T2: mouse FcγRIIb (Mus musculus, UniProt P08101)
T2 construct: purchased R&D Systems, Inc
T2 sequence (P08101 30-330): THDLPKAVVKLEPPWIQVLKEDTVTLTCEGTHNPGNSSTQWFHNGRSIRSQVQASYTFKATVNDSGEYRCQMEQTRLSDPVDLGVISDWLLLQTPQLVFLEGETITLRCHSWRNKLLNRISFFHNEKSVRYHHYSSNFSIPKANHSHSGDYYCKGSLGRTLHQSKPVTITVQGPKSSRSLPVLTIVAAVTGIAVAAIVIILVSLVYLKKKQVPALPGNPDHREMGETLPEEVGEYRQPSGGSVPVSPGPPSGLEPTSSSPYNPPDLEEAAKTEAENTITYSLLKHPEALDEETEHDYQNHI

T3: mouse FcγRIII (Mus musculus, UniProt P08508)
T3 construct: purchased R&D Systems, Inc
T3 sequence (P08508 31-261): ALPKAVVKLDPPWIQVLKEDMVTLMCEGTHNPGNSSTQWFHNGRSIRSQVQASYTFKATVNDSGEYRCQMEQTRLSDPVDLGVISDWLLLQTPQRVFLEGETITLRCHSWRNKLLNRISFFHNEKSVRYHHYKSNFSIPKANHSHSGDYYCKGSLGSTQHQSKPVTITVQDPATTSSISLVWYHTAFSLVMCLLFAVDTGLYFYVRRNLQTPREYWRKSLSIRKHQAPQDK

T4: mouse FcγRIV (Mus musculus, UniProt A0A0B4J1G0)
T4 construct: purchased R&D Systems, Inc
T4 sequence (A0A0B4J1G0 21-249): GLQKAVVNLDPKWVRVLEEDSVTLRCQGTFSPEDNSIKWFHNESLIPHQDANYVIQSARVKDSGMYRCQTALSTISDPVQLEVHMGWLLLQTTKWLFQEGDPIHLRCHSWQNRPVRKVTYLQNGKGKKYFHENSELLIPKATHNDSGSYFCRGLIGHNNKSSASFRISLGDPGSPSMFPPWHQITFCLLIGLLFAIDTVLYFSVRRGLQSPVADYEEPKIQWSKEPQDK

B1: H7-1: core fucose-deficient rat/human chimeric antibody of anti-IL-5R rat monoclonal antibody H7, human IgG1 constant region (antibody, V domains shown)
VH: EVQLQQSGAELGKPGTSVKLSCKVSGYNIKNTYIHWVNQRPGKGLEWIGRIDPANGNPIYAEKFKNKATLTADTSSNTAYMQLSQLKSDDTAIYFCAMHRGHSMGPGPYVMDAWGQGASVTVSS
VL: DIQMTQSPASLSASLGETVTIECRTSEDIYNGLAWYQQKPGKSPQLLIYNANSLHTGVPSRFSGSGSGTQYSLKINSLQSEDVASYCCQQYSNYPFTFGSGTKLEIK
B2: H7-3: N-linked sugar chain-deficient H7 chimeric antibody, human IgG1 (N297A), lacking ADCC activity (antibody, V domains shown)
VH: B1 VH
VL: B1 VL

Key:
[1] = tested on: rIL-33-induced pulmonary vascular wall thickening; test: rIL-33-induced pulmonary arterial wall thickening, Heath-Edwards grading of lung tissue; format: in vivo, mouse; conditions: IL-5+/+ mice given rIL-33; intrabronchial administration on days 7 and 14; compared with PBS group; FIG. 8
Protocol: Therefore, the degree of vascular wall thickening in IL-5^+/+ mice and IL-5^V/V mice was quantitatively graded on the basis of the Heath-Edwards grading system. On days 0, 7, and 14, 400 ng of rIL-33 was administered to each mouse. On day 21, lung tissues were resected and subjected to pathological observation to conduct tissue classification on the basis of the Heath-Edwards grading system.
In this grading system, evaluation was carried out according to grade 1: medial thickening, grade 2: intimal thickening, grade 3: advanced intimal thickening and medial thickening, and grade 4; plexiform lesion in addition to advanced intimal thickening and medial thickening.
In an experimental system similar to that of Example 3, in order to confirm the inhibitory effect of an anti-IL-5 neutralizing antibody on intimal thickening and medial thickening, 100 μg of an anti-IL-5 rat monoclonal antibody (NC17) (Hitoshi et al., Int. Immunol., 1991; 3; 135-139) or a rat IgG control antibody (manufactured by Sigma-Aldrich Co., LLC) was intraperitoneally administered to each IL-5^+/+ mouse for 3 consecutive days (a total of 3 times) from two days before rIL-33 administration day. Then, on day 21, lung tissues were resected and subjected to pathological observation to conduct tissue classification on the basis of the Heath-Edwards grading system. […]

[2] = tested on: mouse IL-5Rα-expressing cell Y16; test: Antigen binding activity of chimeric antibodies on Y16 cells by FCM; format: cell-based; conditions: 0.6-10000 ng/mL antibody, 4° C. 60 min; FIG. 12
Protocol: The chimeric antibodies prepared in Example 8 were evaluated for their antigen binding activity using a mouse-derived cell line Y16 expressing IL-5R. The Y16 cells were washed with SM (staining medium containing 2% FCS, 0.05% NaN3, and 1 mM EDTA in PBS). Then, Mouse BD Fc Block (manufactured by Becton, Dickinson and Company) was added thereto at a concentration of 5 μg/mL, and the mixture was left standing at 4° C. for 30 min. The cells were inoculated at a cell number of 1×10^5 cells/well to a 96-well U-bottom plate, and each chimeric antibody adjusted to a final concentration of 10000, 2500, 625, 156, 39, 10, 2.4, or 0.6 ng/mL was added thereto, followed by reaction at 4° C. for 60 min. The rat/human chimeric control antibodies used were rtDNP-1 hIgG1 (DF) antibody (KM8808) and rtDNP-1 hIgG1 (N297A) antibody (KM6161). The nucleotide sequences and amino acid sequences of the variable regions of each isotype control antibody are shown in SEQ ID NOs: 29 to 34. After washing of the cells with SM, Goat F(ab′)2 Anti-Human IgG PE (γ chain specific) (manufactured by Southern Biotech) diluted 500-fold with SM was added thereto, followed by reaction at 4° C. for 60 min. After washing of the cells with SM, the cells were resuspended in 50 μL of SM. Fluorescence intensity was measured by FCM (flow cytometer FACS Canto II (manufactured by Becton, Dickinson and Company)). The data was analyzed using FlowJo 7.65 (manufactured by Tomy Digital Biology Co., Ltd.) to calculate a Geomean value at each concentration.

mouse FcγRI = target: T1, mouse FcγRI; test: Biacore steady state affinity for mouse FcγRI; format: binding; conditions: Biacore T-200, Steady State Affinity mode
Protocol: (§1) The various H7 chimeric antibodies prepared in Example 8 and the parent antibody H7 rat IgG2a-type antibody were evaluated for their affinity for mouse FcγR using Biacore T-200 (manufactured by GE Healthcare Japan Corp.). An anti-tetra His mouse antibody (manufactured by Qiagen N.V.) was immobilized with 8000 RU as a guideline onto CM5 sensor chip using an amine coupling kit (all manufactured by GE Healthcare Japan Corp.). The coupling buffer used was 10 mM sodium acetate (pH 4.5). His tag-fused mouse FcγRI, IIb, III, and IV proteins (all manufactured by R&D Systems, Inc.) each dissolved at 2 μg/mL in HBS-EP(+) were captured as ligands at 2 μL/min for 30 sec. Then, each antibody serially diluted into concentrations of […] was added thereto as an analyte by the multicycle method. The flow rate was 5 μL/min, and the contact time and the dissociation time were both set to a condition of 240 sec. The analysis was carried out using Biacore T200 Evaluation software on the Steady State Affinity mode. A rise in binding activity against FcγRI and FcγRIV involved in in vivo mouse effector activity was observed by the alteration of the H7 constant region from rat IgG2a type to hIgG1 type.

mouse FcγRIIb = target: T2, mouse FcγRIIb; test: Biacore steady state affinity for mouse FcγRIIb; format: binding; conditions: Biacore T-200, Steady State Affinity mode
Protocol: as §1

mouse FcγRIII = target: T3, mouse FcγRIII; test: Biacore steady state affinity for mouse FcγRIII; format: binding; conditions: Biacore T-200, Steady State Affinity mode
Protocol: as §1

mouse FcγRIV = target: T4, mouse FcγRIV; test: Biacore steady state affinity for mouse FcγRIV; format: binding; conditions: Biacore T-200, Steady State Affinity mode
Protocol: as §1

Y16 cells = test: ADCC activity against Y16 cells with human PBMC effector cells (LDH release); format: cell-based, mouse; conditions: 4 hrs, 0.0001-1000 ng/mL (control antibodies 1000 ng/mL), FIG. 13
Protocol: The H7 recombinant chimeric antibodies prepared in Example 8 were evaluated for their ADCC activity against Y16 cells using frozen human peripheral blood mononuclear cells (PBMCs) (manufactured by AllCells) as effector cells. The frozen human PBMCs were shake-cultured (37° C., 5% CO2, overnight) in RPMI1640 medium containing 5% FBS. The Y16 cells (target cells) and the human PBMCs (effector cells) were washed with ADCC assay medium (RPIM1640 containing 5% dialyzed FBS) and adjusted to cell densities of 2×10^5 cells/mL and 3×10^6 cells/mL, respectively. The cells were washed twice with a medium and then suspended into cell densities of 4×10^5 cells/mL. Each chimeric antibody adjusted to a final concentration of 0.0001, 0.001, 0.01, 0.1, 1, 10, 100, or 1000 ng/mL, the target cells (2×10^4 cells/well), and the effector cells (5×10^5 cells/well) were added in this order at 50 μL/well to a 96-well U-bottom plate. The control antibodies used were the rtDNP-1 hIgG1 (DF) antibody (KM8808) and the rtDNP-1 hIgG1 (N297A) antibody (KM6161) of Example 10 adjusted to a final concentration of 1000 ng/mL. The plate was centrifuged (500 rpm, 5 min) and then left standing in an incubator (37° C., 5% CO2, 4 hrs). The plate was centrifuged (1500 rpm, 5 min) to recover a supernatant at 50 μL/well into a 96-well Flat-bottom plate (manufactured by Sumitomo Bakelite Co., Ltd.). Lactate dehydrogenase (LDH) activity in the supernatant was detected using CytoTox 96 Non-Radioactive Cytotoxicity Assay (manufactured by Promega Corp.). Absorbance at 490 nm was measured using a plate reader SPECTRA MAX 340 PC384 (manufactured by Molecular Devices, LLC). The ADCC activity (%) was calculated according to the following equation using background-corrected measurement values. Cytotoxicity=[[Absorbance of the sample]−[Absorbance derived from spontaneous release from the target cells and the effector cells]]/[[Absorbance derived from total release from the target cells]−[Absorbance derived from spontaneous release from the target cells]]

| Molecule | pulmonary vascular wall thickening (histological scores, Heath-Edwards grading) [1] | antigen binding activity (fluorescence intensity, Geomean) on Y16 cells [2] | Kd (mouse FcγRI) [nM] | Affinity KD for mouse FcγRIIb (mouse FcγRIIb) | Affinity KD for mouse FcγRIII (mouse FcγRIII) | Kd (mouse FcγRIV) [nM] | ADCC activity against Y16 cells (Y16 cells) | Affinity KD for mouse FcγRI (mouse FcγRI) | Affinity KD for mouse FcγRIV (mouse FcγRIV) |
| --- | --- | --- | --- | --- | --- | --- | --- | --- | --- |
| CC#CCC(C)[C@H](O)/C=C/[C@@H]1[C@H]2C/C(=C/CCCC(=O)O)C[C@H]2C[C@H]1O (stereo partly shown) [iloprost] | evident decrease in pulmonary vascular wall thickening was observed |  |  |  |  |  |  |  |  |
| B1 |  | confirmed to react equivalently | 137 | no binding | no binding | 89.5 | exhibited antibody concentration-dependent ADCC activity |  |  |
| B2 |  | confirmed to react equivalently |  | no binding | no binding |  | none | very weak | no binding |
